In paper PMC12603982 (Angewandte Chemie (International Ed. in English), 2025):
Positions of bridges follow the written chain, without caps; N, C: chain ends. Non-standard residues stand in square brackets, D forms with d. Groups on a side chain read outwards from the residue. Primed or numbered codes have the meaning given here. No end group written: not given here. εdLys = D-Lys linked through its epsilon amine (k^ε); PEG5′ = PEG5 spacer, as named in the construct; Cy3s = Cy3s fluorophore, as named; Cy5s = Cy5s fluorophore, as named; Orn = NCCC[C@H](N)C(=O)O; Mpa = O=C(O)CCS

T1: human vasopressin V1b receptor (hV1bR) (human, UniProt P47901 1-424)
T1 construct: vasopressin V1b receptor, human; in membrane preparations; source: HEK293, stably expressing; membrane preparations
T1 sequence (looked up): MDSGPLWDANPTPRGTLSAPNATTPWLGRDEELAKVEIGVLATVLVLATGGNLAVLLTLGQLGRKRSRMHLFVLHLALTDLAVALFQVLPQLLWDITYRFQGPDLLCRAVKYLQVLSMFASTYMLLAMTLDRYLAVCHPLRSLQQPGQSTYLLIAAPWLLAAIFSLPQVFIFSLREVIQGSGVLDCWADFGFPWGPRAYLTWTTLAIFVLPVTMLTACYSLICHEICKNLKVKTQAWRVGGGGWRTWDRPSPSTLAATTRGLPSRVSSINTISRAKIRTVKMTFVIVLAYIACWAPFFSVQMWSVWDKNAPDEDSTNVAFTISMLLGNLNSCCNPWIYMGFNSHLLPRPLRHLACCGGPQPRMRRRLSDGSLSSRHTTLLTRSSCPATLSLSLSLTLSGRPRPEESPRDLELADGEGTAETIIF

T2: human oxytocin receptor (hOTR) (human, UniProt P30559 1-389)
T2 construct: oxytocin receptor, human; in membrane preparations or on cells; constructs are in the Supporting Information; source: HEK293, stably expressing; membrane preparations (radioligand assay); free-floating cells (FACS)
T2 sequence (looked up): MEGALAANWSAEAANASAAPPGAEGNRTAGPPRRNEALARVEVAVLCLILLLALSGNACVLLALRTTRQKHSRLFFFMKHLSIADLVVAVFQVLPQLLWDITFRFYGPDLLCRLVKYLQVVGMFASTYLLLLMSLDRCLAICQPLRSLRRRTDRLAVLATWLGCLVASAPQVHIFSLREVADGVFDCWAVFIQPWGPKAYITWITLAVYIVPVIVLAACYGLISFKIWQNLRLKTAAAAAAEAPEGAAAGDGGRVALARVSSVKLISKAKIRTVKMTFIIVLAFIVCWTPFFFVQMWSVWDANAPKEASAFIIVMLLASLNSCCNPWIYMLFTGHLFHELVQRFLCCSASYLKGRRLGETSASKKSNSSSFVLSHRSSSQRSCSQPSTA

T3: murine vasopressin V1b receptor (mV1bR) (murine, UniProt Q9WU02 1-421)
T3 construct: vasopressin V1b receptor, murine; in membrane preparations; source: HEK293, transiently expressing; membrane preparations
T3 sequence (looked up): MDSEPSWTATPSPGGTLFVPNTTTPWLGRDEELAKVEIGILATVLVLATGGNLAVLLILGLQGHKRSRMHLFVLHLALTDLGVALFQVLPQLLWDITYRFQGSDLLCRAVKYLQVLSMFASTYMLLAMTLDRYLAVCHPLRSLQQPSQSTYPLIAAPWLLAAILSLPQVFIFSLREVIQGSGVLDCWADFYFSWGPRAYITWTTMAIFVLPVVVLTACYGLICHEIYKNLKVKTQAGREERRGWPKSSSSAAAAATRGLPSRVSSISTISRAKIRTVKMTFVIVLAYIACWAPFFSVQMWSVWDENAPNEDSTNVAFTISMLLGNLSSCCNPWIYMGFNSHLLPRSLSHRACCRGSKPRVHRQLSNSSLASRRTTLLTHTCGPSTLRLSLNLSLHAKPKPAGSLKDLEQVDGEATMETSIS

T4: murine oxytocin receptor (mOTR) (murine, UniProt P97926 1-388)
T4 construct: oxytocin receptor, murine; in membrane preparations; source: HEK293, transiently expressing; membrane preparations
T4 sequence (looked up): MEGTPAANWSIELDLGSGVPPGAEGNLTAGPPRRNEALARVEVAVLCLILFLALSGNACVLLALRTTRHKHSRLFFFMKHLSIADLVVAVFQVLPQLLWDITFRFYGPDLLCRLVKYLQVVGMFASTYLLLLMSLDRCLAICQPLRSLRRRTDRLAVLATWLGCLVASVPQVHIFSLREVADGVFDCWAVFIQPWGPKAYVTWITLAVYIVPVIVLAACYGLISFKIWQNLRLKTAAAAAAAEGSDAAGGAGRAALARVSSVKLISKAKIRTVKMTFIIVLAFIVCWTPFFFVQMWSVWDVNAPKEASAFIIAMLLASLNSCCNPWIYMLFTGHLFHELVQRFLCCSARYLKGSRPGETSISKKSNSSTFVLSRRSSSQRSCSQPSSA

B1: Vasopressin (VP) (peptide)
peptide: CYFQNCPRG
notes: vasopressin (arginine at position 8), endogenous nonapeptide; numbers count on: the mature nonapeptide
B2: Oxytocin (OT) (peptide)
peptide: CYIQNCPLG
notes: oxytocin, endogenous nonapeptide ligand of OTR; numbers count on: the mature nonapeptide

Assays:
Settings in all cases: one partner purified
[1] = target: T5, human vasopressin V1a receptor (hV1aR) (human, UniProt P37288 1-418); experiment: radioligand binding; displacement of [3H]-OT or [3H]-VP from membrane preparations of HEK293 cells stably expressing the human receptor; dose-response curves in duplicates, at least three independent experiments; Ki >10 µM assigned where <25% of the radioligand was displaced at 10 µM
T5 construct: vasopressin V1a receptor, human; in membrane preparations; source: HEK293, stably expressing; membrane preparations
T5 sequence (P37288 whole entry): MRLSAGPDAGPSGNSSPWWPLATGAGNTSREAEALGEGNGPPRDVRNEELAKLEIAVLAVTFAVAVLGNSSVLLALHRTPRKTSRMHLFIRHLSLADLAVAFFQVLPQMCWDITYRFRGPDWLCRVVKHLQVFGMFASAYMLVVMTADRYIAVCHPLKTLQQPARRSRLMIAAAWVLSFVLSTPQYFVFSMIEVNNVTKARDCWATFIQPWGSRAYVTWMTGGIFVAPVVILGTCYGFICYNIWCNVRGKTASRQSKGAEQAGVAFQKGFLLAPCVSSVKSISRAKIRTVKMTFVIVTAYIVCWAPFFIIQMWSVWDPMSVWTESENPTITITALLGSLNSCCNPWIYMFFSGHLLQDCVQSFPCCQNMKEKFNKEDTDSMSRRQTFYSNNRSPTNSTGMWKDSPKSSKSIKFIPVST

[2] = target: T1, human vasopressin V1b receptor (hV1bR); experiment: as above
[3] = target: T2, human oxytocin receptor (hOTR); experiment: as above
[4] = target: T6, murine vasopressin V2 receptor (mV2R) (murine, UniProt O88721 1-371); experiment: radioligand binding; displacement of [3H]-OT or [3H]-VP from membrane preparations of HEK293 cells transiently expressing the murine receptor; dose-response curves in duplicates, at least three independent experiments; Ki >10 µM assigned where <25% of the radioligand was displaced at 10 µM
T6 construct: vasopressin V2 receptor, murine; in membrane preparations; source: HEK293, transiently expressing; membrane preparations
T6 sequence (O88721 whole entry): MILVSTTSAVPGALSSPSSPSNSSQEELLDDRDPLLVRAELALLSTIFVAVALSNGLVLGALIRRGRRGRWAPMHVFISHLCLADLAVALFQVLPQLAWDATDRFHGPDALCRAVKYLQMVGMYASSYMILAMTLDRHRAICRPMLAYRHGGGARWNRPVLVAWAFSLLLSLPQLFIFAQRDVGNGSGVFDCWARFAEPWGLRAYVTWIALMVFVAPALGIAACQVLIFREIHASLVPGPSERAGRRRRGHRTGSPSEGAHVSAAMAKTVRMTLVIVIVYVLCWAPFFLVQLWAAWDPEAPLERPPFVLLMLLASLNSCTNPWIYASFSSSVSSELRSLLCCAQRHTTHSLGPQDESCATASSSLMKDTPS

[5] = target: T7, murine vasopressin V1a receptor (mV1aR) (murine, UniProt Q62463 1-423); experiment: as above
T7 construct: vasopressin V1a receptor, murine; in membrane preparations; source: HEK293, transiently expressing; membrane preparations
T7 sequence (Q62463 whole entry): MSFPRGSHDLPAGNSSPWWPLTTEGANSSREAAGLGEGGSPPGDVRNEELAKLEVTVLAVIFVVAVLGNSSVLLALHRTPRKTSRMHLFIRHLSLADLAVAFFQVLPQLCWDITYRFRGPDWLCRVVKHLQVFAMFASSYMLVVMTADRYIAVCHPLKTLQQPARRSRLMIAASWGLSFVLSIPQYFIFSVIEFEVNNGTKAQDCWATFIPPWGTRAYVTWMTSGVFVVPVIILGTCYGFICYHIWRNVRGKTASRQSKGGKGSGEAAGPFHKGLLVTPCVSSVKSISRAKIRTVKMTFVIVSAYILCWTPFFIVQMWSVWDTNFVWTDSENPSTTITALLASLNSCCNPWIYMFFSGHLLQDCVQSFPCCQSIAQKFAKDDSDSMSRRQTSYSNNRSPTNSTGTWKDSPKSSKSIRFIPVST

[6] = target: T3, murine vasopressin V1b receptor (mV1bR); experiment: as above
[7] = target: T4, murine oxytocin receptor (mOTR); experiment: as above

Binder	Ki [1]	Ki [2]	Ki [3]	Ki [4]	Ki [5]	Ki [6]	Ki [7]
[Mpa]YIQNCP[Orn]([PEG5′-εdLys-Cy5s])G (disulfide 1-6) [d(Orn)^8OT‐[PEG5‐k^ε‐Cy5s]^8]	11 nM	176 nM	1.2 nM				
[Mpa]YIQNCP[Orn]([PEG5′-Cy3s])G (disulfide 1-6) [d(Orn)^8OT‐[PEG5‐Cy3s]^8]	80 nM	372 nM	1.5 nM				
[Mpa]YIQNCP[Orn](Cy5s)G (disulfide 1-6) [d(Orn)^8OT‐[Cy5s]^8]	23 nM	86 nM	0.9 nM				
[Mpa]YIQNCP[Orn]G (disulfide 1-6) [d(Orn)^8OT]	0.4 nM	0.8 nM	0.7 nM				
[Mpa]YIQNCP[Orn]([dD-PEG5′-Cy5s])G (disulfide 1-6) [d(Orn)^8OT‐[d‐PEG5‐Cy5s]^8]	553 nM	1320 nM	6 nM				
[Mpa]YIQNCP[Orn]G (disulfide 1-6; not fully specified (residue 8)) [d(Orn)^8OT‐[d‐PEG5‐k^ε‐AF488]^8]	1430 nM	1800 nM	22.6 nM				
[Mpa]YIQNCP[Orn]([dD-PEG5′-εdLys-TAMRA])G (disulfide 1-6) [d(Orn)^8OT‐[d‐PEG5‐k^ε‐TAMRA]^8]	631 nM	932 nM	7.5 nM				
[Mpa]INYQCP[Orn]([dD-PEG5′-εdLys-Cy3s])G (disulfide 1-6 (inferred)) [scrambled cyclic tracer dCINYQCP(Orn)G‐[d‐PEG5‐k^ε‐Cy3s]^8]	> 10000 nM	> 10000 nM	> 10000 nM	> 10000 nM	> 10000 nM	> 10000 nM	> 10000 nM
[Mpa]YIQNCP[Orn]([PEG5′-PEG5′-εdLys-Cy3s])G (disulfide 1-6) [d(Orn)^8OT‐[PEG5‐PEG5‐k^ε‐Cy3s]^8]	22 nM	199 nM	1.5 nM				
B1					1 nM	0.4 nM	8.1 nM
[Mpa]YIQNCP[Orn]([PEG5′-εdLys-Cy3s])G (disulfide 1-6) [d(Orn)^8OT‐[PEG5‐k^ε‐Cy3s]^8]	21 nM	242 nM	1.4 nM				
[Mpa]YIQNCP[Orn]([PEG5′-Cy5s])G (disulfide 1-6) [d(Orn)^8OT‐[PEG5‐Cy5s]^8]	70 nM	376 nM	1.3 nM				
B2				1570 nM	1400 nM	416 nM	
[Mpa]YIQNCP[Orn]([εdLys-εdLys-Cy3s])G (disulfide 1-6) [d(Orn)^8OT‐[k^ε‐k^ε‐Cy3s]^8]	3.3 nM	10 nM	0.8 nM				
